This is an account of results in article PMC2120686.

Where “and” joins values, the source holds several entries; their conditions need not be identical. Identical values can stand only once.

Test [1] concerns the target titin (rabbit). Nature of the test: ELISA.
Test [2] has as its target titin (rabbit). Nature of the test: light scattering.
Test [3] addresses light meromyosin (LMM) (rabbit). Kind of test: electron microscopy.
Test [4] has the same target. Nature of the test: ELISA.
For test [5], the target named is K peptide (30-kD CNBr fragment of LMM) (rabbit). Nature of the test: ELISA.
Test [6] concerns the target J peptide (15-kD CNBr fragment of LMM) (rabbit). Nature of the test: ELISA.
For the next test, the target named is dansylated LMM (rabbit). Kind of test: fluorescence polarisation.

In the test with titin (rabbit) [1], “J peptide (15-kD CNBr fragment of LMM) (domain or fragment)” yielded a maximum inhibition of titin binding to LMM of 60%.

In the test with titin (rabbit) [2], “light meromyosin (LMM) (domain or fragment)” registered a stoichiometry N of 25 to 50.

In test [3], titin (natural protein) had a percent of molecules closely associated of 20%. Further, the Kd is 12 nM in test [4]; 30 nM and 20 nM in test [6]; 15 nM in the test with dansylated LMM (rabbit). In addition, the fold lower affinity than the 15-kD peptide in test [5] amounted to 100 fold. In the test with dansylated LMM (rabbit), this substance returned a molecular-binding constant of 400 nM.
